The values that follow come from patent US5602021.

Test [1] addresses pIII coat protein of bacteriophage CA2000 (filamentous bacteriophage (helper phage R408 derivative)).
Test [2] deals with pIII coat protein of bacteriophage CA2000 (OMP1) (filamentous bacteriophage (helper phage R408 derivative)).
The target in test [3] is pIII coat protein of bacteriophage CA2000 (OMP2) (filamentous bacteriophage (helper phage R408 derivative)).
The target of test [4] is pIII coat protein of bacteriophage CA1051 (filamentous bacteriophage (helper phage R408 derivative)).
For test [5], the target named is pIII coat protein of bacteriophage CA2000 (filamentous bacteriophage (helper phage R408 derivative)). This is another data set of the same source.
The target in test [6] is pIII coat protein of bacteriophage CA1000 (filamentous bacteriophage (helper phage R408 derivative)).
The target of test [7] is pIII coat protein of bacteriophage TARGETBACK (filamentous bacteriophage (helper phage R408 derivative)).

Bounds are passed on as bounds.

“OmpT protease (from UniProt P09169) (enzyme)”: the infective phage particles (ampicillin resistant transducing units) from OmpT mediated maturation of pIII in test [1] was under 50 ApR T.U./ml; in test [2], 2500 ApR T.U./ml; in test [3] it was 18000 ApR T.U./ml.
Consider “host encoded leader peptidase (from UniProt P00803) (enzyme)”, for which the infective phage particles (OmR transducing units) in test [4] was 30000 OmR T.U./ml; in test [5] it was under 50 OmR T.U./ml; in test [6] it was 1e+08 OmR T.U./ml; in test [7], 1000 OmR T.U./ml.
